B4: lamin 300 fragment, wild type (human lamin A/C residues 1–300), His tag cleaved (domain or fragment, UniProt P02545 1-300, looked up)
chain: METPSQRRATRSGAQASSTPLSPTRITRLQEKEDLQELNDRLAVYIDRVRSLETENAGLRLRITESEEVVSREVSGIKAAYEAELGDARKTLDSVAKERARLQLELSKVREEFKELKARNTKKEGDLIAAQARLKDLEALLNSKEAALSTALSEKRTLEGELHDLRGQVAKLEAALGEAKKQLQDEMLRRVDAENRLQTMKEELDFQKNIYSEELRETKRRHETRLVEIDNGKQREFESRLADALQELRAQHEDQVEQYKKELEKTYSAKLDNARQSAERNSNLVGAAHEELQQSRIRID
notes: lamin A/C, human, residues 1-300; Mostly a dimer by SEC-MALS; also called WT; lamin 1–300 fragment; source: E. coli BL21 (DE3), purified (Ni-NTA, TEV, HiTrap Q, SEC); not shown: His tag, N-terminal, cleaved
B5: lamin 300 fragment A146C mutant (human lamin A/C residues 1–300), His tag cleaved (domain or fragment, UniProt P02545 1-300, looked up)
chain: METPSQRRATRSGAQASSTPLSPTRITRLQEKEDLQELNDRLAVYIDRVRSLETENAGLRLRITESEEVVSREVSGIKAAYEAELGDARKTLDSVAKERARLQLELSKVREEFKELKARNTKKEGDLIAAQARLKDLEALLNSKECALSTALSEKRTLEGELHDLRGQVAKLEAALGEAKKQLQDEMLRRVDAENRLQTMKEELDFQKNIYSEELRETKRRHETRLVEIDNGKQREFESRLADALQELRAQHEDQVEQYKKELEKTYSAKLDNARQSAERNSNLVGAAHEELQQSRIRID
modifications: disulfide bond through Cys146 in the non-reduced protein
notes: lamin A/C, human, residues 1-300; Non-reduced: partly a disulfide-linked tetramer; with TCEP: dimer (A146C^R); also called lamin 300 A146C; A146C variant; source: E. coli BL21 (DE3), purified (Ni-NTA, TEV, HiTrap Q, SEC); not shown: His tag, N-terminal, cleaved

Data set [1] addresses B5. The data set can be described thus: pull-down; lamin 300 A146C coupled to CNBr-activated Sepharose; fragments at 66 μM; 20 mM Tris-HCl pH 8.0, 150 mM NaCl, non-reducing; Tris-blocked resin as control; SDS-PAGE. The conditions noted are these: both partners purified.
For data set [2], the target named is T1, His-tagged lamin 300 fragment, wild type (human lamin A/C residues 1–300) (human, UniProt P02545 1-300).
T1 construct: lamin A/C, human, residues 1-300; The plasmid also encodes a TEV site between the tag and the lamin residues (pProEx-HTa); also called His-lamin; His-tagged wild-type lamin 300 fragment; source: E. coli BL21 (DE3), purified (Ni-NTA, HiTrap Q, SEC; no TEV treatment); not shown: His tag, N-terminal, kept
T1 sequence (looked up): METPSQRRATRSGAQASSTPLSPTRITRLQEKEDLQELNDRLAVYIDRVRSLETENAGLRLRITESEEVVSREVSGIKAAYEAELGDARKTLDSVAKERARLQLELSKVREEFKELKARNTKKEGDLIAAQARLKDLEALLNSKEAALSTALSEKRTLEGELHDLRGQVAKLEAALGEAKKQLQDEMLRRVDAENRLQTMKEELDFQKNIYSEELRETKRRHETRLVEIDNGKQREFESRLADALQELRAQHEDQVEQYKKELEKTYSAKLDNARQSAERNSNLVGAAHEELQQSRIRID
The data set can be described thus: pull-down; His-tagged lamin 300 (wild type, Y45C, L59R) on Ni-NTA resin; lamin 250-400 as prey; 20 mM Tris-HCl pH 8.0 with 50 or 150 mM NaCl; SDS-PAGE. As to conditions: both partners purified.

In data set [3] the target is T1, His-tagged lamin 300 fragment, wild …. The data set can be described thus: ITC; His-lamin 300 (20 μM) in the cell, His-250-400 (160 μM) in the syringe; PBS, 25 °C, 19 injections of 2 μL. As to conditions: both partners purified. Background: ITC needs no label: the signal is the heat of the interaction.
Data set [4] has as its target T2, His-tagged lamin 300 fragment L59R mutant (human, UniProt P02545 1-300, L59R).
T2 construct: lamin A/C, human, residues 1-300, with the dilated cardiomyopathy mutation L59R; source: E. coli BL21 (DE3), purified (Ni-NTA, HiTrap Q, SEC; no TEV treatment)
T2 sequence (looked up): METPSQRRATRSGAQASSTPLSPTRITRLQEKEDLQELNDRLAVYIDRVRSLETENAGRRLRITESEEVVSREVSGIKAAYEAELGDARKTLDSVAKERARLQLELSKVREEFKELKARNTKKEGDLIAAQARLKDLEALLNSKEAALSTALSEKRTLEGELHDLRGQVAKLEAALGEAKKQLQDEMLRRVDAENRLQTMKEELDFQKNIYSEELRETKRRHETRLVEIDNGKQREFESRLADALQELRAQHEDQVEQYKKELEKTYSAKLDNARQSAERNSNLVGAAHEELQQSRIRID
The description is as above. The conditions noted are these: both partners purified.

The target in data set [5] is B4. Put plainly: pull-down; His-F3 on Ni-NTA resin as bait; tag-cleaved lamin 300 proteins as prey; 20 mM Tris-HCl pH 8.0 with 150 or 50 mM NaCl, room temperature 30 min, wash with 20 mM imidazole; 2 mM TCEP for reduced A146C; SDS-PAGE. The conditions noted are these: both partners purified.
Data set [6] addresses B5. The description is as above. As to conditions: both partners purified.
Data set [7] concerns the molecule itself. The data set can be described thus: crystal structure; SeMet-labelled lamin 1-300, His tag cleaved, 7 mg/mL; 0.1 M Tris-HCl pH 8.5, 0.9 M LiCl, 7% PEG 8000, 14 °C; SAD, 3.2 Å.
Data set [8] deals with the molecule itself. Put plainly: SEC-MALS; 2.5 mg/ml, Superdex 200 Increase 5/150 GL, non-reducing buffer Tris-HCl pH 8.0, 150 mM NaCl. Background: In gel filtration, larger molecules generally elute earlier.
Data set [9] concerns the target B4. The data set can be described thus: cross-linking; sulfo-SMPB (0-250 μM) added to 20 μM lamin 300 and 286-400 R388C, 1 h, 20 mM HEPES pH 7.5, 50 mM NaCl, 1 mM EDTA; SDS-PAGE bands digested with chymotrypsin, MS/MS. The conditions noted are these: both partners purified.
Data set [10] concerns the molecule itself. Described as above.

“And” between values parts separate entries of the source, which are not always exact repeats. Equal values may be shown once.

Results on six molecules are retold here after publication PMC6704074, “Structural basis for lamin assembly at the molecular level” (Nature Communications, 2019).

B1: lamin 250–400 fragment (F3), without His tag (domain or fragment, human, UniProt P02545 250-400, looked up)
chain: AQHEDQVEQYKKELEKTYSAKLDNARQSAERNSNLVGAAHEELQQSRIRIDSLSAQLSQLQKQLAAKEAKLRDLEDSLARERDTSRRLLAEKEREMAEMRARMQQQLDEYQELLDIKLALDMEIHAYRKLLEGEEERLRLSPSPTSQRSRG
notes: lamin A/C, human, residues 250-400 (coil 2, residues 240-385, without its N-terminal ten residues); not called His-tagged there, so by the common procedure the tag would be cleaved; also called coil 2 fragment; C-terminal part of coil 2; source: E. coli BL21 (DE3), purified (Ni-NTA, TEV, HiTrap Q, SEC)
As to B1, the binding result in [1] and in data set [2] was “binds” in each case.

B2: His-F3 (His-tagged lamin A/C residues 250–400) (domain or fragment, human, UniProt P02545 250-400, looked up)
chain: AQHEDQVEQYKKELEKTYSAKLDNARQSAERNSNLVGAAHEELQQSRIRIDSLSAQLSQLQKQLAAKEAKLRDLEDSLARERDTSRRLLAEKEREMAEMRARMQQQLDEYQELLDIKLALDMEIHAYRKLLEGEEERLRLSPSPTSQRSRG
notes: lamin A/C, human, residues 250-400; The plasmid also encodes a TEV site between the tag and the lamin residues (pProEx-HTa); also called his-tagged 250–400 fragment; coil 2 fragment; source: E. coli BL21 (DE3), purified (Ni-NTA, HiTrap Q, SEC; no TEV treatment); not shown: His tag, N-terminal, kept
As for B2, the binding result in data set [3], in data set [5] and in [6] was “binds” each time. Besides, the “fold higher binding affinity than the wild type (from KD values)” value in [4] is around 40 fold.

B3: selenomethionine-labelled lamin A/C fragment (residues 1–300), His tag cleaved (domain or fragment, human, UniProt P02545 1-300, looked up)
chain: METPSQRRATRSGAQASSTPLSPTRITRLQEKEDLQELNDRLAVYIDRVRSLETENAGLRLRITESEEVVSREVSGIKAAYEAELGDARKTLDSVAKERARLQLELSKVREEFKELKARNTKKEGDLIAAQARLKDLEALLNSKEAALSTALSEKRTLEGELHDLRGQVAKLEAALGEAKKQLQDEMLRRVDAENRLQTMKEELDFQKNIYSEELRETKRRHETRLVEIDNGKQREFESRLADALQELRAQHEDQVEQYKKELEKTYSAKLDNARQSAERNSNLVGAAHEELQQSRIRID
modifications: selenomethionine-labelled
notes: lamin A/C, human, residues 1-300 (head, coil 1a, L1, coil 1b, L12, first half of coil 2); Four protomers (chains A-D) in the asymmetric unit: two parallel coiled-coil dimers (A:B, C:D) packed anti-parallel; also called lamin 300 fragment; N-terminal half fragment of human lamin A/C; source: E. coli B834 (DE3), M9 medium with L-(+)-selenomethionine, purified (Ni-NTA, TEV, HiTrap Q, SEC); not …
B3: the binding result in data set [7] is “binds”.

Consider B4, for which, in data set [8], the “stoichiometry N” value is 2.

Turning to B5, the “stoichiometry N” value in data set [8] was 4 and 2.

B6: lamin 286–400 R388C mutant (domain or fragment, human, UniProt P02545 286-400, looked up)
chain: GAAHEELQQSRIRIDSLSAQLSQLQKQLAAKEAKLRDLEDSLARERDTSRRLLAEKEREMAEMRARMQQQLDEYQELLDIKLALDMEIHAYRKLLEGEEERLCLSPSPTSQRSRG
notes: lamin A/C, human, residues 286-400; runs at 14 kDa on SDS-PAGE; Reduced with 2 mM DTT and desalted before cross-linking; also called coil 2 (286–400) R388C; coil 2 R388C; source: E. coli BL21 (DE3), purified
Take B6: the binding result in [9] and in [10] was “binds” throughout.

The term stoichiometry N denotes a count of units in the complex or per binding partner.
